According to the emibetuzumab library of Makowski et al. (2022):

B1: VH:VL chains; a variant is named by its letters at X, in order (parent)
chain 1: QVQLVQSGAEVKKPGASVKVSCKASGYTFTDYXMHWVRQAPGQGLEWMGXVNPNXXXTTYNQKFEGRVTMTTDTSTSTAYMELRSLRSDDTAVYYCARXNXLDXWGQGTTVTVSS
chain 2: DIQMTQSPSSLSASVGDRVTITCSVSSSVSSIYLHWYQQKPGKAPKLLIYSTSNLASGVPSRFSGSGSGTDFTLTISSLQPEDFATYYCQVYSGYPLTFGGGTKVEIK

Variants of: B1
Assay: yeast display scFab, FACS + sequencing
Outline: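 Heavy-chain CDR mutant scFab yeast surface library, FACS-sorted after labelling with biotinylated ovalbumin (260 μg/mL in PBSB, 3 h, room temperature) or soluble membrane proteins (130 μg/mL, 20 min on ice), plus anti-Myc. Gates collected the top 25% and bottom 10% of binders, and samples from two replicates were deep sequenced. Non-specific binding call: a sequence was positive if found in ≥3 of 4 positive samples (membrane protein and ovalbumin pooled) and no negatives, and negative by the converse rule.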

Variant | non-specific binding call
DKEGGSAD | no binding
FKGEGAGV | no binding
YKGGSSAA | binds
YKGGSSAD | binds
SKEGGVGV | binds
FKGEDAVA | no binding
YKGEGDVV | no binding
YKAKGAAA | binds
YKAKGAAD | binds
DKEGGDVD | no binding
DKEGGDVA | no binding
DKEGGDVV | no binding
YKERGDVV | no binding
YKERGDVF | binds
YKGEGFSS | binds
FKGEGDVA | no binding
FKGEGDVY | no binding
VKEGGDVA | no binding
VKEGGDVV | no binding
DKGEGAAA | no binding
AKGEDSVF | no binding
DKGGGFAV | no binding
YKARGSWD | binds
FKARGSGV | binds

Variant | non-specific binding call
YKGGGAGA | binds
YKGGGAGS | binds
YKGGSDVY | binds
VKARGSGA | binds
VKARGSGD | binds
VKARGSGV | binds
YKAKGAGD | binds
FKEGGSAA | binds
YKARGSAA | binds
FKATTVVD chain 1 S88F | binds
YKARGAGA | binds
YKARGAGV | binds
VKERGAVA | no binding
YKGEGDGV | no binding
FKGGGFGA | binds
YKAGGSLF | binds
YKGKDSSV | no binding
YKARGAAD | binds
YKARGAAY | binds
DKEEDSLA | no binding
FKAGGSGA | binds
YKAKGSAV | binds
DKEEADGV | no binding
VKARNDLV | no binding

Variant | non-specific binding call
DKEGGAAA | no binding
DKEGGAAD | no binding
DKEGGAAV | no binding
SKGEGDWA | no binding
YKGADFGD | binds
FKARDSSA | binds
DKEGGSLV | no binding
DKEGGSLD | no binding
SKERGSLV | no binding
YKEGAYAD | binds
SKAKGAWD | binds
SKAKGAWS | binds
YKGGSAAA | binds
YKEGGSGD | no binding
YKGGSSLD | binds
DKEGGSGV | no binding
FKGEGSSA | no binding
VKEKGSLF | binds
FKAKGAWD | binds
FKGGNVGV | binds
YKGGSFGV | binds
VKGEAAWD | binds
SKERGDVA | no binding
SKERGDVV | no binding

Variant | non-specific binding call
SKERGDVD | no binding
YKGEDDVY | no binding
FKGEGDGV | no binding
DKEGGYSV | no binding
DKERGDLV | no binding
SKERGDWV | no binding
SKERGDWY | no binding
YKGAGALD | binds
VKEKGDWV | no binding
YKGEADGA | no binding
YKGGGALD | binds
YKGGGSAV | binds
VKAGSAAA | no binding
VKEKGYLV | no binding
DKGGAAGD | no binding
YKARGAVY | binds
VKEGGDGA | no binding
VKGGAAVY | no binding
VKAGSDVA | no binding
VKERGSVD | binds
VKGASDVA | no binding
VKGASDVV | no binding
FKGEGDAA | no binding
VKEGGSAD | binds

Variant | non-specific binding call
SKGASFAY | binds
FKGEGFGS | binds
SKAGGVGA | binds
YKAGGSGV | binds
YKGAGSAD | binds
AKEADDVA | no binding
VKAKDAGY | binds
FKARGASV | binds
VKGGGFGA | binds
VKARGSVA | binds
VKARGSVD | binds
YKEGDSGV chain 1 R87K | no binding
FKGGGAVY | binds
AKERGDGV | no binding
DKEGGDGY | no binding
DKEGGDGA | no binding
DKEGGDGV | no binding
DKEGGFGV | no binding
YKEEDSLD | no binding
YKARTSSS | binds
VKEADDVA | no binding
AKGGGDVV | no binding
FKARGALV | binds
YKEKGAVD | binds

Variant | non-specific binding call
SKGGSAWD | binds
VKGASDWA | no binding
YKARGALS | binds
VKGESAGV | no binding
AKGKASSD | binds
FKARGSVD | binds
VKARGAAV | binds
YKARGAWA | binds
YKARGAWS | binds
YKARGAWD | binds
SKERGDLV | no binding
SKERGDAA | no binding
YKGEGYGV | binds
YKAKGASV | binds
AKAGSYGV | binds
DKGGSAVV | no binding
YKGGDDLA | no binding
YKGAASGV | binds
YKEEDDAV | no binding
YKEKGDGA | no binding
DKGEGAGV | no binding
DKGGSSLD | no binding
FKATTSGA | binds
YKGGGYGA | binds

Variant | non-specific binding call
VKEKGDSA | no binding
FKARDSGD | binds
YKAGGSAS | binds
SKAGSDVA | no binding
FKEGNSLD | no binding
FKEAGAVY | binds
VKGAGSVV | no binding
VKEGGSSA | no binding
AKATADVD | binds
SKGASAWA | binds
VKARGSLA | binds
DKEGGDLA | no binding
YKARSALF | binds
YKETGYAV | binds
FKGEGSLV | no binding
FKGEGSLY | no binding
SKERGDGA | no binding
DKGGGDVA | no binding
FKGEGDSA | no binding
DKGGAVWT | no binding
YKGGSAWY | binds
YKERDVGV | binds
YKGAGDVV | no binding
VKEKGAWV | binds

Variant | non-specific binding call
VKEKGAWY | binds
VKEKGAWS | no binding
FKGEGAAD | no binding
VKEKGALD | binds
VKERGDAV | no binding
DKATGDAY | no binding
FKGGSSAA | binds
VKGAGDLA | no binding
YKGAAFWA | binds
YKGEGDLA | no binding
YKGEGDLV | no binding
DKEGGAVV | no binding
YKARGSLV | binds
YKARGSLY | binds
YKAGGYSD | binds
YKERASGV | binds
VKEGGAVV | no binding
VKGGNVGV | binds
SKEAGYSV | binds
VKGAGAAS | binds
DKAKGDGS | no binding
YKEGGAGD | no binding
VKARGAGS | binds
VKARGAGV | binds

Variant | non-specific binding call
YKARGSGS | binds
YKARGSGA | binds
YKGGSSGV | binds
VKGEGDVY | no binding
SKAKGSSD | binds
VKEKGDVA | no binding
YKAKGALD | binds
VKGKDSGD | binds
DKGEGDGA | no binding
VKARSAGV | binds
YKARGSSS | binds
VKAKGAAA | binds
SKGENALY | no binding
VKEADAWV | no binding
VKETSVLF | binds
DKGGSDVV | no binding
DKGGSDVA | no binding
DKEGGSSS | no binding
DKEGGSSA | no binding
VKGGSFGS | binds
VKGASDGA | no binding
VKAGGSLY | binds
VKARGSAV | binds
VKARGSAF | binds

Variant | non-specific binding call
YKGAGAWA | binds
VKEKGDGS | no binding
SKAKGSAA | binds
VKGGGYGA | binds
SKAKGSGV | binds
SKAKGSGA | binds
VKGEGYGA | binds
AKGGAAVY | no binding
DKEGGDAV | no binding
DKEGGDAS | no binding
VKERGDGV | no binding
SKAGGSAD | binds
DKGEGDLA | no binding
VKATAVAV | binds
YKGGSAGY | binds
YKGGSAGA | binds
FKGEGYGV | binds
YKGAAFAD | binds
FKAGSSGV | binds
VKEKGDLA | no binding
SKAKGFGV | binds
